According to publication PMC7214467 (Nature Communications, 2020):

Experiments:
[1] = biological target: HLA-A2/NY-ESO-1 peptide complex on tumor cells (Homo sapiens, HLA-A2 (A*02:01 assumed), …); assay: cell-based or functional assay
[2] = biological target: T1, CD3 on Jurkat cells (Homo sapiens, endogenous on Jurkat …, UniProt P07766); assay: flow cytometry on cells; Jurkat cells; titrated from 30 μg/mL in 3-fold dilutions, on ice; detected with PE goat anti-human lambda; settings: one partner purified
T1 construct: CD3 of the T cell receptor complex on Jurkat cells; On cells CD3ε stands with the other CD3 chains and the TCR; also called CD3+ Jurkat cells; source: endogenous, on Jurkat cells (ATCC TIB-152)
T1 sequence (P07766 23-207): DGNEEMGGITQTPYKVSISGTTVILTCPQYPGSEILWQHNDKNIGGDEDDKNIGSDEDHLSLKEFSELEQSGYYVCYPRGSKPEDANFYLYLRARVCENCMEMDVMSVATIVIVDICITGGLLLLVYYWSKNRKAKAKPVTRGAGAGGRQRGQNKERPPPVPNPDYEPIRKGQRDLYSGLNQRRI

| T cell redirected lysis of peptide-pulsed Saos-2 cells by primary T cells, 48 h, EC50 [1] | binding result [2] | T cell redirected lysis of peptide-pulsed 624.38 cells by primary T cells, 48 h, EC50 [1] | Binder |
| --- | --- | --- | --- |
| ~1 nM | binds |  | TCR/CD3 IgG BsAb with the 1G4_122 NY-ESO-1 TCR (stabilized Cα/Cβ subunit) and the chimeric SP-34 anti-CD3 arm (bispecific antibody, V domains shown, soluble 1G4_122 TCR α chain; Cα with the stabilizing mutations as in m1; soluble 1G4_122 TCR β chain; Cβ with the stabilizing mutations as in m2; detected with goat anti-human lambda; Two heavy chains joined by the 7.8.60 Fc heterodimer design; also called IgG-like BsAb; TCR/CD3 bifunctional; source: CHO K1SV KO, transient, secreted, purified (mAbSure resin, preparative size exclusion); copies: + …) VH: EVQLVESGGGLVQPKGSLKLSCAASGFTFNTYAMNWVRQAPGKGLEWVARIRSKYNNYATYYADSVKDRFTISRDDSQSLLYLQMNNLKTEDTAMYYCVRHGNFGNSYVSWFAYWGQGTLVTVSA VL: QAVVTQESALTTSPGETVTLTCRSSTGAVTTSNYANWVQEKPDHLFTGLIGGTNKRAPGVPARFSGSLIGDKAALTITGAQTEDEAIYFCALWYSNLWVFGGGTKLTVL |
| ~0.03 nM | binds | ~0.1 nM | TCR/CD3 Tandem BsAb with the stabilized 1G4_122 NY-ESO-1 TCR and the chimeric SP-34 anti-CD3 Fab (bispecific antibody, V domains shown, soluble 1G4_122 TCR α chain; Cα with the stabilizing mutations as in m1; soluble 1G4_122 TCR β chain; Cβ with the stabilizing mutations as in m2; detected with goat anti-human lambda; also called tandem Fab BsAb; tandem Fab; copies: + + +) VH: EVQLVESGGGLVQPKGSLKLSCAASGFTFNTYAMNWVRQAPGKGLEWVARIRSKYNNYATYYADSVKDRFTISRDDSQSLLYLQMNNLKTEDTAMYYCVRHGNFGNSYVSWFAYWGQGTLVTVSA VL: QAVVTQESALTTSPGETVTLTCRSSTGAVTTSNYANWVQEKPDHLFTGLIGGTNKRAPGVPARFSGSLIGDKAALTITGAQTEDEAIYFCALWYSNLWVFGGGTKLTVL |
